According to IntAct's records for PubMed 20802463:

biological target: rfa2_human RPA2 (UniProt P15927)
Sequence (P15927 whole entry): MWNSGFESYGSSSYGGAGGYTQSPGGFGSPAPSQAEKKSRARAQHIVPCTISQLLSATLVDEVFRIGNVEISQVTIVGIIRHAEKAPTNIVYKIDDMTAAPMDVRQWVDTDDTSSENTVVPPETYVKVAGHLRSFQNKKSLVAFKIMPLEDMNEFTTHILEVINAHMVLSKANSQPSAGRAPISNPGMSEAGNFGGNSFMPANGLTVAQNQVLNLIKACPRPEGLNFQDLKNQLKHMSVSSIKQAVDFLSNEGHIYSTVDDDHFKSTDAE

Effect of a mutation on the interaction, disrupting interaction:
Bifunctional 3'-5' exonuclease/ATP-dependent helicase WRN (Homo sapiens), Q14191 S991A
Bifunctional 3'-5' exonuclease/ATP-dependent helicase WRN (Homo sapiens), Q14191 S1256A
Bifunctional 3'-5' exonuclease/ATP-dependent helicase WRN (Homo sapiens), Q14191 T1152A

biological target: rfa2_human RPA2 (UniProt P15927); remark: another data set of the same source

Effect of a mutation on the interaction, disrupting interaction:
Bifunctional 3'-5' exonuclease/ATP-dependent helicase WRN (Homo sapiens), Q14191 S1058A
Bifunctional 3'-5' exonuclease/ATP-dependent helicase WRN (Homo sapiens), Q14191 S1141A
Bifunctional 3'-5' exonuclease/ATP-dependent helicase WRN (Homo sapiens), Q14191 S1292A
